The text below walks through data of the supplement of paper PMC7877785.

The data set is described as follows: self-splicing fitness, log relative to wild type (ln ratio); higher = more splicing; Tetrahymena group I intron in knt gene, E. coli kanamycin selection, DiMSum; sequences stand for … in CUCUCU…GGAGGGAAAAGUUAUCAGGCAUGCACCUGGUAGCUAGUCUUUAAACCAAUAGAUUGCAUCGGUUUAAAAGGCAAGACCGUCAAAUUGCGGGAAAGGGGUCAACAGCCGUUCAGUACCAAGUCUCAGGGGAAACUUUGAGAUGGCCUUGCAAAGGGUAUGGUAAUAAGCUGACGGACAUGGUCCUAACCACGCAGCCAAGUCCUAAGUCAACAGAUCUUCUGUUGAUAUGGAUGCAGUUCACAGACUAAAUGUCGGUCGGGGAAGAUGUAUUCUUCUCAUAAGAUAUAGUCGGACCUCUCCUUAAUGGGAGCUAGCGGAUGAAGUGAUGCAACACUGGAGCCGCUGGGAACUAAUUUGUAUGCGAAAGUAUAUUGAUUAGUUUUGGAGUACUCGUGGUCG
An outline of the steps:
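DiMSum derived fitness as the error-weighted combination of fold changes across replicates, kanamycin versus no kanamycin, normalised to wild type. E. coli BL21(DE3) held the library, which randomised all eight P1ex-region intron nucleotides within the knt kanamycin-resistance gene on pET-22b(+). Six replicate transformations grew overnight at 37°C or 30°C on LB agar with or without 25 μg/mL kanamycin, also containing 100 μg/mL carbenicillin, 50 μM IPTG and 0.2% rhamnose, and pooled colonies were amplicon-sequenced on an Illumina HiSeq 2500.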

± gives the uncertainty stated by the source.

Consider GCAAAGCAAUAUUACGAGGC, for which the “self-splicing fitness (ln)” value (30 °C) was -3.55 ± 0.34 and the “self-splicing fitness (ln)” value (37 °C) is -2.77 ± 0.4.

As for AGAGAGCAAUAUUACGGUUA, the “self-splicing fitness (ln)” value was -3.1 ± 0.25 (30 °C) and -1.83 ± 0.21 (37 °C).

For GCUAAGCAAUAUUACGGGCC, the “self-splicing fitness (ln)” value (37 °C) is -2.28 ± 0.39.

Consider UUAGAGCAAUAUUACGUGCC, for which, where the note is “37 °C”, the “self-splicing fitness (ln)” value is -1.58 ± 0.33.

On to CGGUAGCAAUAUUACGUCGC, for which the “self-splicing fitness (ln)” value is, setting by setting: (30 °C) -3.35 ± 0.27; (37 °C) -2.14 ± 0.22.

As to CAGAAGCAAUAUUACGCAAG, the “self-splicing fitness (ln)” value is -2.45 ± 0.098 (30 °C) and -1.21 ± 0.092 (37 °C).

In the case of GCAGAGCAAUAUUACGAUGA, the “self-splicing fitness (ln)” value reads like this: (30 °C) -1.42 ± 0.14; (37 °C) -1.07 ± 0.12.

For the sequence CCGGAGCAAUAUUACGUGAG, the “self-splicing fitness (ln)” value (30 °C) is -1.33 ± 0.12 and the “self-splicing fitness (ln)” value (37 °C) is -0.689 ± 0.1.

On to UUGUAGCAAUAUUACGGAUC, for which the “self-splicing fitness (ln)” value is, setting by setting: (30 °C) -3.53 ± 0.3; (37 °C) -2.48 ± 0.26.

Turning to UAACAGCAAUAUUACGUCCG, the “self-splicing fitness (ln)” value (30 °C) is -0.0665 ± 0.086 and the “self-splicing fitness (ln)” value (37 °C) stood at 0.0833 ± 0.12.

Regarding CGCAAGCAAUAUUACGAAGC, the “self-splicing fitness (ln)” value runs as follows: (30 °C) -2.55 ± 0.13; (37 °C) -3.1 ± 0.19.

With ACAGAGCAAUAUUACGAAAC, the “self-splicing fitness (ln)” value (30 °C) is -2.71 ± 0.29.

Take CACGAGCAAUAUUACGAACU: the “self-splicing fitness (ln)” value (37 °C) is -1.72 ± 0.38.

For CUUGAGCAAUAUUACGAGGU, the “self-splicing fitness (ln)” value reads like this: (30 °C) -2.39 ± 0.19; (37 °C) -2.42 ± 0.22.

In the case of AUCUAGCAAUAUUACGCCUG, the “self-splicing fitness (ln)” value (30 °C) was -0.828 ± 0.16 and the “self-splicing fitness (ln)” value (37 °C) was -1.39 ± 0.23.

In the case of UACUAGCAAUAUUACGAACG, the “self-splicing fitness (ln)” value is -0.328 ± 0.15 (30 °C) and -0.12 ± 0.18 (37 °C).

In the case of AAUUAGCAAUAUUACGGCAA, the “self-splicing fitness (ln)” value is, setting by setting: (30 °C) -0.926 ± 0.14; (37 °C) -0.497 ± 0.18.

In the case of AUGCAGCAAUAUUACGCAGC, the “self-splicing fitness (ln)” value (37 °C) was -1.91 ± 0.46.

ACUAAGCAAUAUUACGAGGU: the “self-splicing fitness (ln)” value by setting is: (30 °C) -3 ± 0.14; (37 °C) -3.37 ± 0.25.

For the sequence ACAUAGCAAUAUUACGCCGC, for the setting “37 °C”, the “self-splicing fitness (ln)” value was -2.65 ± 0.4.

On to GUGCAGCAAUAUUACGGACA, for which the “self-splicing fitness (ln)” value was -1.58 ± 0.14 (30 °C) and -0.853 ± 0.16 (37 °C).

AGAAAGCAAUAUUACGCAAA: the “self-splicing fitness (ln)” value is -3.28 ± 0.26 (30 °C) and -0.836 ± 0.13 (37 °C).

For the sequence GGGCAGCAAUAUUACGUCCC, under “30 °C”, the “self-splicing fitness (ln)” value is -2.38 ± 0.46.

For the sequence CAAGAGCAAUAUUACGUCUA, the “self-splicing fitness (ln)” value was -2.41 ± 0.13 (30 °C) and -1.56 ± 0.11 (37 °C).

For the sequence CUGCAGCAAUAUUACGAUAU, the “self-splicing fitness (ln)” value (30 °C) was -3.64 ± 0.28 and the “self-splicing fitness (ln)” value (37 °C) is -2.41 ± 0.3.

Regarding UAUCAGCAAUAUUACGUCCU, the “self-splicing fitness (ln)” value is -1.44 ± 0.18 (30 °C) and -1.01 ± 0.2 (37 °C).

In the case of GCGGAGCAAUAUUACGACAC, the “self-splicing fitness (ln)” value (30 °C) was -0.913 ± 0.22.

In the case of AGACAGCAAUAUUACGAUAA, the “self-splicing fitness (ln)” value (30 °C) is -2.68 ± 0.16 and the “self-splicing fitness (ln)” value (37 °C) was -0.931 ± 0.15.

As for CAUUAGCAAUAUUACGCGAC, the “self-splicing fitness (ln)” value (30 °C) is -3.58 ± 0.48.

Turning to ACUAAGCAAUAUUACGACGA, the “self-splicing fitness (ln)” value reads like this: (30 °C) 0.0648 ± 0.13; (37 °C) 0.181 ± 0.13.

Turning to GAGUAGCAAUAUUACGAGCU, the “self-splicing fitness (ln)” value is, setting by setting: (30 °C) -1.64 ± 0.073; (37 °C) -0.0858 ± 0.11.

With GGAAAGCAAUAUUACGCUAU, the “self-splicing fitness (ln)” value is -2.74 ± 0.28 (30 °C) and -2.11 ± 0.21 (37 °C).

On to UAUCAGCAAUAUUACGGCAA, for which the “self-splicing fitness (ln)” value runs as follows: (30 °C) -0.306 ± 0.12; (37 °C) 0.808 ± 0.15.

In the case of UGCCAGCAAUAUUACGUAGA, the “self-splicing fitness (ln)” value (30 °C) is -1.45 ± 0.056 and the “self-splicing fitness (ln)” value (37 °C) is -0.504 ± 0.065.

Regarding GCAUAGCAAUAUUACGAAAU, the “self-splicing fitness (ln)” value was -1.98 ± 0.13 (30 °C) and -1.31 ± 0.12 (37 °C).

Consider AUGGAGCAAUAUUACGACAG, for which the “self-splicing fitness (ln)” value was -2.74 ± 0.28 (30 °C) and -0.415 ± 0.28 (37 °C).
